Measurements as given in article PMC4931022, “Arginine demethylation is catalysed by a subset of JmjC histone lysine demethylases” (Nature Communications, 2016).

Columns and labels:
[1] = biological target: KDM6B(1,141-1,590) (human) (UniProt O15054)
KDM3A(515-1,317) (human) = biological target: T1, KDM3A(515-1,317) (human) (UniProt Q9Y4C1)
T1 sequence: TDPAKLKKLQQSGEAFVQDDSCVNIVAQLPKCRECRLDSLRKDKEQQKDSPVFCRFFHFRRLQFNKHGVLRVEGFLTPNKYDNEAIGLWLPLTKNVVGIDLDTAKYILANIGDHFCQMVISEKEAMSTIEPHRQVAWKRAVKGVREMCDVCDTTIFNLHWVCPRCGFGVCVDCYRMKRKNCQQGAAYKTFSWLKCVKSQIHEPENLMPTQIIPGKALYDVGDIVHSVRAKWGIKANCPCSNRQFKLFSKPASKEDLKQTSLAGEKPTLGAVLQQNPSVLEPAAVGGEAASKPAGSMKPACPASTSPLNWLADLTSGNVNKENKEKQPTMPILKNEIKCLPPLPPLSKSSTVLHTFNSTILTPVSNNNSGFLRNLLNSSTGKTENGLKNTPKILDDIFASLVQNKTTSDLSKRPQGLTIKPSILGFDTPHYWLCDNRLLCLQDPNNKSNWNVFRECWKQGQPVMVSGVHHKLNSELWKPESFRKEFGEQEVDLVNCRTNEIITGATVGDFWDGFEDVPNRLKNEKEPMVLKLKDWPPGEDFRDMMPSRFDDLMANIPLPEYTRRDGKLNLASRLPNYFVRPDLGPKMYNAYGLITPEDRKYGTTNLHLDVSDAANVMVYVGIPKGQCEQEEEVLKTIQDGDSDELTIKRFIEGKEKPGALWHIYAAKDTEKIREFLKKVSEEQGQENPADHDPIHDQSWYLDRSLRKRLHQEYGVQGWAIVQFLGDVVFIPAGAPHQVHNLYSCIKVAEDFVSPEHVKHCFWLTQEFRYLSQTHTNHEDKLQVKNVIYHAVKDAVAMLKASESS

KDM4E(1-337) (human) = biological target: T2, KDM4E(1-337) (human) (UniProt B2RXH2)
T2 sequence: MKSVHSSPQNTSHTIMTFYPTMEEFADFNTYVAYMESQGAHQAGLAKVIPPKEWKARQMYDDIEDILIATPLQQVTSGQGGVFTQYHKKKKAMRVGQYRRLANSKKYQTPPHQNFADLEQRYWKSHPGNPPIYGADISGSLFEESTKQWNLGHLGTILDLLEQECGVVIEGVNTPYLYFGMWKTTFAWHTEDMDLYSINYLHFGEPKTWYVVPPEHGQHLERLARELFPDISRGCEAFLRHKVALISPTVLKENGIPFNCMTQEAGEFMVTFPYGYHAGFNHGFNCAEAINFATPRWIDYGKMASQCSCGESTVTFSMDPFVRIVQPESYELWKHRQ

KDM5C(1-765) (human) = biological target: T3, KDM5C(1-765) (human) (UniProt P41229)
T3 sequence: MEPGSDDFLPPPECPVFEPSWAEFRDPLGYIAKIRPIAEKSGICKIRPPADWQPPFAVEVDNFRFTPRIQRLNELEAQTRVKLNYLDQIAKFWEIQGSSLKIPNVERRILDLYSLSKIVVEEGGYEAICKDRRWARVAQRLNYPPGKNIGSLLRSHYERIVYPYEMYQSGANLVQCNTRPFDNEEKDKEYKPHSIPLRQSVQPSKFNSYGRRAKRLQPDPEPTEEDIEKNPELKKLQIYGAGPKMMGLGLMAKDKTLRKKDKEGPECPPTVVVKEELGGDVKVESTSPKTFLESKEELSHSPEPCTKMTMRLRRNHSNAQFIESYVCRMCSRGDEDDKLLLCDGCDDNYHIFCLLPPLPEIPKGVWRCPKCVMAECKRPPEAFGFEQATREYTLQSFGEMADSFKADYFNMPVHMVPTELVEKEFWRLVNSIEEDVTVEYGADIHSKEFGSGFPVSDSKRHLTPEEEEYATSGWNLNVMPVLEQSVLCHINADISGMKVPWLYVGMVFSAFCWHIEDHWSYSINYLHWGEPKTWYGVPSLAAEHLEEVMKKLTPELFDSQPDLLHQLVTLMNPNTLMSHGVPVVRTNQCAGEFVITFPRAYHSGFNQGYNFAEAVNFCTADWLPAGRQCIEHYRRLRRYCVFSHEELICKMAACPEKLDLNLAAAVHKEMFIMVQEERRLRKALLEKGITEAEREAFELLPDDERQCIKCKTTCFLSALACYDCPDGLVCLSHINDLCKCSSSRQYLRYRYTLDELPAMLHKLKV

KDM6B(1,141-1,590) (human), sequence (O15054 1141-1590): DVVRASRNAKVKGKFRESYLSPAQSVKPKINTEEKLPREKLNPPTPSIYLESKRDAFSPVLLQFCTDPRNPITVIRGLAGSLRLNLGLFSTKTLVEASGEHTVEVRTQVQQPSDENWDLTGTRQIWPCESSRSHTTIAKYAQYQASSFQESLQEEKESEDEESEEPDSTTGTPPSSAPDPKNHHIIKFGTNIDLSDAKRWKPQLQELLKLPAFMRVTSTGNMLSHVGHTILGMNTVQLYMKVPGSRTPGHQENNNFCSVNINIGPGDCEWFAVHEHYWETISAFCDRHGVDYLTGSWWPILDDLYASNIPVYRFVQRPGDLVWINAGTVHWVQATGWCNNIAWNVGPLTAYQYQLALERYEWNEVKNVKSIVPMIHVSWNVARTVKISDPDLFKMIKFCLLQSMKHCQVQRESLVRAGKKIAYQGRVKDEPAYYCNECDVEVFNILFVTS

| Substance | apparent KM, formaldehyde dehydrogenase-coupled demethylation assay (KDM3A(515-1,317) (human)) [µM] | apparent KM, formaldehyde dehydrogenase-coupled demethylation assay (KDM4E(1-337) (human)) [µM] | apparent KM, formaldehyde dehydrogenase-coupled demethylation assay (KDM5C(1-765) (human)) [µM] | further results |
| --- | --- | --- | --- | --- |
| H3(14-34)K27me3 (from UniProt P68431 15-35) (peptide) |  |  |  | apparent KM, formaldehyde dehydrogenase-coupled demethylation assay [1]: 6.7 µM |
| H3(1-15)K9me2 (from UniProt P68431 2-16) (peptide) | 44.5 |  |  |  |
| H3(1-15)K9me3 (from UniProt P68431 2-16) (peptide) |  | 17.8 |  |  |
| H3(1-15)K4Rme2a (from UniProt P68431 2-16) (peptide) |  |  | 29 |  |
| H3(1-15)K4me3 (from UniProt P68431 2-16) (peptide) |  |  | 7.6 |  |
| H3(1-15)K4Rme2s (from UniProt P68431 2-16) (peptide) |  |  | 21.1 |  |
| H3(14-34)K27Rme2a (from UniProt P68431 15-35) (peptide) |  |  |  | apparent KM, formaldehyde dehydrogenase-coupled demethylation assay [1]: 676 µM |
| H3(1-15)K9Rme2a (from UniProt P68431 2-16) (peptide) | 11.6 | 66 |  |  |
| H3(1-15)K9Rme2s (from UniProt P68431 2-16) (peptide) | 23.7 | 101 |  |  |
| H3(1-15)K9Rme (from UniProt P68431 2-16) (peptide) | 12.1 | 169 |  |  |
